According to publication PMC11444335, “Next-generation cell-penetrating antibodies for tumor targeting and RAD51 inhibition” (Oncotarget, 2024):
Where a chain is given by its changes, count along the chain named. Names may count otherwise.

B1: fully humanized full-length 3E10 variant V31 (VH3 + VL1, IgG1) (antibody, V domains shown)
VH: EVQLVESGGGLVQPGGSLRLSCAASGFTFSNYGMHWVRQAPGKGLEWVAYISSGSSTIYYADTVKGRFTISRDNAKNSLYLQMTSLRAEDTAMYYCARRGLLLDYWGQGTLVTVSS
VL: DIVLTQSPASLAVSPGQRATITCRASKSVSTSSYSYMHWYQQKPGQPPKLLIYYASYLESGVPARFSGSGSGTDFTLTINPVEANDTANYYCQHSREFPWTFGGGTKVEIK
notes: humanized VH3 (CDR graft of 3E10 on germline IGHV3-48*01, with N31); human IgG1 heavy chain constant region; humanized VL1 (CDR graft of 3E10 on germline IGKV7-3*01); IgG1; all humanized variants contain the D31N mutation; source: Chinese hamster ovary cells, purified (Genscript)
B2: full-length chimeric WT 3E10 (murine variable chains, human IgG1 Fc domain) (antibody, V domains shown)
VH: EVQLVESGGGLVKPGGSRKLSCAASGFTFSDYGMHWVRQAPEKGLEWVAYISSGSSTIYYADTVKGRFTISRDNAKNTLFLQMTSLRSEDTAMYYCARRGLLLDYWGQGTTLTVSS
VL: B1 VL with P15L, T22S, Y53K, T78N, N80H, A84E, N85E, T87A, N89T, V108L
notes: murine 3E10 VH, wild type (D31 in CDR1); human IgG1 heavy chain constant region; murine 3E10 VL, wild type; IgG1 chimera; also called parental 3E10; source: purified antibody

Target: T1, human RAD51 (Homo sapiens, UniProt Q06609)
T1 construct: DNA repair protein RAD51, human, expressed from the CMV-hRAD51 plasmid (Addgene #125570); Endogenous RAD51 of the MCF7 cells is also present and would be detected by the same anti-RAD51 blot; also called hRAD51; source: MCF7, transiently transfected with CMV-hRAD51 plasmid, in cells and lysate
Experiment: cross-linking + co-IP; CLIP: MCF7 cells transfected with 10 ug CMV-hRAD51 plasmid, treated with 500 nM purified antibody for 6 h, UV crosslinked, lysed; antibody captured on Protein A/G beads, eluate blotted with anti-RAD51; RAD51 signal normalized to Fc signal of the lysate and to WT
Details: one partner purified

T1 sequence (Q06609 whole entry): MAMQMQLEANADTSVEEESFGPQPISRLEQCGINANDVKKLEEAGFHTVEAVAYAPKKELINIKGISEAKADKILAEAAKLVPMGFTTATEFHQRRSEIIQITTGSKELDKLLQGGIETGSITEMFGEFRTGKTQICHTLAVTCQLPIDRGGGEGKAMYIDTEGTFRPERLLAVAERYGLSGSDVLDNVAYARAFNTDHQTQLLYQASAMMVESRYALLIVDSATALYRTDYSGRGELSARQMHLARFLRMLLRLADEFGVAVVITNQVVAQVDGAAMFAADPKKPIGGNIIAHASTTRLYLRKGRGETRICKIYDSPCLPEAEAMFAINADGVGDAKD

| Binder | binding result |
| --- | --- |
| B1 | binds |
| B2 | binds |
